Source: publication PMC9867944 (Bioscience Reports, 2023)

Tests used:
anti-PD-1 Nb C12-Fc = molecular target: T1, anti-PD-1 Nb C12-Fc (Bactrian camel); assay: ELISA; plates coated with human PD-1 or mouse PD-1 protein at 2 ug/ml overnight; serial diluted anti-PD-1 Nb-Fc added, 37 C, 1 h; HRP-conjugated antihuman IgG; settings: both partners purified
T1 construct: VHH C12 selected from a naive Bactrian camel phage display library; Nb C12 fused to the human IgG1 Fc fragment in plasmid pCZN1; about 40 kDa on SDS-PAGE; also called anti-PD-1 Nb-Fc; PD-1 C12 Nb-Fc

[1] = molecular target: T2, human PD-1 protein (Acro biosystems) (Homo sapiens (Human)., UniProt Q15116); assay: ELISA; Phage-ELISA; wells coated with human PD-1 protein; supernatant of the colonies added for 1 h; anti-M13/HRP (1:5000); positive if absorbance more than two times the negative control (PBS); settings: one partner purified
T2 construct: programmed death protein 1 (PD-1), human, recombinant protein; probably the extracellular domain; also called human PD-1 antigen; hPD-1; source: bought: Acro biosystems
T2 sequence (Q15116 25-170): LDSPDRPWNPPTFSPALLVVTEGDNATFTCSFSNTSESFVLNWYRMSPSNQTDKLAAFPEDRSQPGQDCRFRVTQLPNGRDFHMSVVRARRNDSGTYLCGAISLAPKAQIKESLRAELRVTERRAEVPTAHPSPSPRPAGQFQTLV

Binder | binding result (anti-PD-1 Nb C12-Fc) | binding result [1]
mouse PD-1 protein (receptor, UniProt Q02242 25-288, looked up, programmed death protein 1 (PD-1), mouse, protein coated on plates; also called mouse PD-1 antigen) LEVPNGPWRSLTFYPAWLTVSEGANATFTCSLSNWSEDLMLNWNRLSPSNQTEKQAAFCNGLSQPVQDARFQIIQLPNRHDFHMNILDTRRNDSGIYLCGAISLHPKAKIEESPGAELVVTERILETSTRYPSPSPKPEGRFQGM | no binding | –
anti-PD-1 Nb C12, displayed on phage (VHH, VHH C12 selected from a naive Bactrian camel phage display library; same VHH as in m1; Detected with anti-M13/HRP; also called C12 Nb; source: E. coli TG1, phage in the supernatant of the colonies) VHH: QVQLQELGETRCRHGGSLRLSCKVSGYTQRSYCLGWLRQAPGNEREAVAVLQHSGNFRHYADSVQGRFVISQDYTDNTVYLAMNNLKSEDAAMYYCAAVGLRVSQFNYWGQGTQVTVSS | – | binds
anti-PD-1 Nb C11, displayed on phage (VHH, VHH C11 selected from a naive Bactrian camel phage display library; Detected with anti-M13/HRP; C11 was never made as an Fc fusion (ligation to pCZN1 failed); also called C11 Nb; source: E. coli TG1, phage in the supernatant of the colonies) VHH: QVQLQESGGAWCEPGGSLTLPCAVSGFAVDRDAVSWVRKAPGQGLQWVSTTTPDGTNYYGALAKDRFTVTRDTTRNTLQLQLTKLRIEDTAKYHCVQDYCSTGRCSLRTQGTQVTVSS | – | binds
